From the supplement of paper PMC10724198
± gives the standard deviation of the averaged measurements.

How the values were obtained:
[1] = system: Saccharomyces cerevisiae; assay: protein stability index of tFT-peptide fusion (C-terminal peptide) (PSI (0-1 scale)); higher = more stable (slower turnover)
Description: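 MPS profiling in S. cerevisiae of the tFT-X12 degron library: putative degron peptides plus stable controls, 12 aa, fused to the C-terminus of a sfGFP-mCherry timer. Cells are FACS-sorted into 8 mCherry/sfGFP bins and deep-sequenced. PSI runs from 0 (unstable) to 1 (stable). Backgrounds are wild type, das1Δ and doa10Δ at 30 °C, and wild type, das1Δ, cdc34-1 and cdc53-1 at 37 °C; 2-3 technical replicates each.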

[2] = system: Saccharomyces cerevisiae; assay: as above; settings: genetic background: wild type; temperature: 30 C
[3] = genetic background: cdc34-1, temperature: 37 C
[4] = genetic background: cdc53-1, temperature: 37 C
[5] = genetic background: das1 deletion, temperature: 30 C
[6] = genetic background: das1 deletion, temperature: 37 C
[7] = genetic background: doa10 deletion, temperature: 30 C
[8] = genetic background: wild type, temperature: 30 C
[9] = genetic background: wild type, temperature: 37 C
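Note: PSI is a weighted mean of sequencing reads over stability bins, variants kept only with over 10 reads, mCherry proximal and sfGFP distal, peptide attached via GGGS linker.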

Row | Sequence | protein stability index [1, 3] | protein stability index [1, 4] | protein stability index [1, 5] | protein stability index [1, 6] | protein stability index [1, 7] | protein stability index [1, 8] | protein stability index [1, 9] | protein stability index [2]
1 | AAFLGVLCWCWG | 0.436 ± 0.039 | 0.465 ± 0.0079 | 0.363 ± 0.033 | 0.486 ± 0.0051 | 0.323 ± 0.0063 | 0.351 ± 0.019 | 0.4703 ± 0.00083 | 0.433 ± 0.011
2 | ACVRFPLVLVVF | 0.0242 ± 0.0039 | 0.0448 ± 0.015 | 0.0965 ± 0.018 | 0.0904 ± 0.0059 | 0.0902 ± 0.022 | 0.0825 ± 0.029 | 0.0644 ± 0.0039 | 0.147 ± 0.014
3 | AFKRVFWALWWM | 0.367 ± 0.01 | 0.39 ± 0.0072 | 0.421 ± 0.03 | 0.563 ± 0.039 | 0.431 ± 0.032 | 0.299 ± 0.022 | 0.43827 ± 0.00033 | 0.36 ± 0.014
4 | AFLFLFSITCIV | 0.181 ± 0.011 | 0.23 ± 0.0042 | 0.195 ± 0.029 | 0.342 ± 0.0063 | 0.197 ± 0.014 | 0.19 ± 0.028 | 0.313 ± 0.0012 | 0.241 ± 0.013
5 | AFPVGFLVGLVV | 0.4381 ± 0.0028 | 0.469 ± 0.011 | 0.345 ± 0.024 | 0.499 ± 0.0067 | 0.319 ± 0.0075 | 0.348 ± 0.021 | 0.4647 ± 0.0044 | 0.431 ± 0.0065
6 | AGCFFVVLCGFF | 0.436 ± 0.018 | 0.503 ± 0.04 | 0.334 ± 0.035 | 0.495 ± 0.016 | 0.311 ± 0.0056 | 0.326 ± 0.0067 | 0.4673 ± 0.0025 | 0.431 ± 0.0071
7 | AIDLCIAVVGMV | 0.479 ± 0.042 | 0.491 ± 0.029 | 0.338 ± 0.035 | 0.5106 ± 0.0023 | 0.311 ± 0.015 | 0.342 ± 0.026 | 0.4829 ± 0.001 | 0.4439 ± 0.0022
8 | AITHVILLVTPL | 0.562 ± 0.02 | 0.5803 ± 0.0043 | 0.411 ± 0.025 | 0.61 ± 0.059 | 0.384 ± 0.0029 | 0.417 ± 0.022 | 0.552 ± 0.0087 | 0.507 ± 0.04
9 | ALFVGVVLLVCW | 0.0857 ± 0.0098 | 0.193 ± 0.023 | 0.177 ± 0.023 | 0.28 ± 0.0069 | 0.154 ± 0.013 | 0.156 ± 0.032 | 0.24564 ± 0.00015 | 0.298 ± 0.013
10 | ALHGTVRNWQRQ | 0.673 ± 0.066 | 0.701 ± 0.059 | 0.63 ± 0.035 | 0.696 ± 0.011 | 0.191 ± 0.016 | 0.245 ± 0.0071 | 0.535 ± 0.04 | 0.39 ± 0.015
11 | ALLLLLRRFFLV | 0.432 ± 0.034 | 0.659 ± 0.029 | 0.643 ± 0.014 | 0.739 ± 0.013 | 0.0867 ± 0.003 | 0.101 ± 0.044 | 0.0903 ± 0.02 | 0.154 ± 0.029
12 | ALMTFTLVFTYM | 0.168 ± 0.0067 | 0.296 ± 0.0055 | 0.181 ± 0.022 | 0.324 ± 0.02 | 0.209 ± 0.026 | 0.173 ± 0.027 | 0.278 ± 0.027 | 0.251 ± 0.014
13 | ALPLRSNILSVF | 0.446 ± 0.019 | 0.489 ± 0.037 | 0.344 ± 0.031 | 0.506 ± 0.0091 | 0.242 ± 0.01 | 0.283 ± 0.023 | 0.45 ± 0.011 | 0.3795 ± 0.0028
14 | ALWFVLISILCL | 0.316 ± 0.016 | 0.353 ± 0.026 | 0.312 ± 0.024 | 0.427 ± 0.03 | 0.304 ± 0.007 | 0.291 ± 0.017 | 0.3896 ± 0.0022 | 0.378 ± 0.007
15 | ARFCFRIFSFAS | 0.159 ± 0.018 | 0.178 ± 0.0049 | 0.288 ± 0.032 | 0.168 ± 0.0092 | 0.0406 ± 0.0038 | 0.0456 ± 0.0018 | 0.0722 ± 0.018 | 0.0816 ± 0.0097
16 | ASCFFLFVLRVF | 0.0589 ± 0.0071 | 0.113 ± 0.0091 | 0.169 ± 0.016 | 0.271 ± 0.0072 | 0.13 ± 0.0043 | 0.112 ± 0.017 | 0.14 ± 0.019 | 0.233 ± 0.041
17 | ATLWVWCFSSHV | 0.601 ± 0.047 | 0.6418 ± 0.003 | 0.469 ± 0.019 | 0.62 ± 0.013 | 0.438 ± 0.023 | 0.447 ± 0.021 | 0.5991 ± 0.0014 | 0.497 ± 0.078
18 | ATSGATILVLIA | 0.569 ± 0.014 | 0.65 ± 0.0048 | 0.488 ± 0.024 | 0.6473 ± 0.0042 | 0.188 ± 0.0099 | 0.218 ± 0.021 | 0.342 ± 0.0064 | 0.307 ± 0.0047
19 | CEVLVVVMCLWG | 0.199 ± 0.0023 | 0.295 ± 0.043 | 0.224 ± 0.029 | 0.3738 ± 0.0025 | 0.196 ± 0.006 | 0.217 ± 0.025 | 0.32342 ± 4.2e-05 | 0.285 ± 0.024
20 | CFFPFLCFVVGA | 0.482 ± 0.021 | 0.492 ± 0.023 | 0.358 ± 0.025 | 0.514 ± 0.0085 | 0.3205 ± 0.0017 | 0.346 ± 0.013 | 0.49 ± 0.0059 | 0.445 ± 0.017

Row | Sequence | protein stability index [1, 3] | protein stability index [1, 4] | protein stability index [1, 5] | protein stability index [1, 6] | protein stability index [1, 7] | protein stability index [1, 8] | protein stability index [1, 9] | protein stability index [2]
21 | CLFFFFFHLPIF | 0.445 ± 0.022 | 0.508 ± 0.016 | 0.425 ± 0.026 | 0.533 ± 0.033 | 0.4011 ± 0.00062 | 0.389 ± 0.023 | 0.476 ± 0.021 | 0.472 ± 0.032
22 | CLFSVLFPLFFR | 0.0858 ± 0.049 | 0.0347 ± 0.0022 | 0.137 ± 0.042 | 0.158 ± 0.016 | 0.6444 ± 0.0064 | 0.142 ± 0.0055 | 0.184 ± 0.073 | 0.214 ± 0.039
23 | CLGLFPSLLRLS | 0.666 ± 0.031 | 0.737 ± 0.021 | 0.644 ± 0.02 | 0.731 ± 0.0092 | 0.285 ± 0.026 | 0.291 ± 0.033 | 0.535 ± 0.009 | 0.325 ± 0.032
24 | CLLWVVWSLLWV | 0.346 ± 0.0041 | 0.432 ± 0.011 | 0.283 ± 0.035 | 0.4506 ± 0.0035 | 0.269 ± 0.0094 | 0.257 ± 0.034 | 0.416 ± 0.0074 | 0.353 ± 0.095
25 | CLVFGFLFFIVI | 0.35 ± 0.028 | 0.411 ± 0.061 | 0.338 ± 0.026 | 0.449 ± 0.016 | 0.435 ± 0.016 | 0.35 ± 0.029 | 0.447 ± 0.037 | 0.404 ± 0.021
26 | CLWNFWVRFLLL | 0.298 ± 0.042 | 0.406 ± 0.023 | 0.399 ± 0.014 | 0.509 ± 0.015 | 0.164 ± 0.0046 | 0.139 ± 0.01 | 0.135 ± 0.0083 | 0.175 ± 0.022
27 | CMLGVVRVLVWF | 0.028 ± 0.0058 | 0.138 ± 0.075 | 0.129 ± 0.029 | 0.1929 ± 0.0009 | 0.101 ± 0.0035 | 0.105 ± 0.051 | 0.17 ± 0.027 | 0.186 ± 0.033
28 | CMLPWPILLCPF | 0.322 ± 0.0044 | 0.329 ± 0.023 | 0.391 ± 0.024 | 0.469 ± 0.023 | 0.517 ± 0.022 | 0.389 ± 0.0084 | 0.456 ± 0.03 | 0.46 ± 0.0055
29 | CMPVYYTVVIRL | 0.177 ± 0.052 | 0.102 ± 0.028 | 0.204 ± 0.029 | 0.294 ± 0.015 | 0.246 ± 0.021 | 0.159 ± 0.024 | 0.31 ± 0.021 | 0.296 ± 0.021
30 | CPALTFCLLLSS | 0.539 ± 0.051 | 0.567 ± 0.0093 | 0.417 ± 0.029 | 0.5866 ± 0.0054 | 0.427 ± 0.015 | 0.383 ± 0.019 | 0.557 ± 0.01 | 0.457 ± 0.0097
31 | CPFLTLLISLDV | 0.52 ± 0.034 | 0.555 ± 0.044 | 0.411 ± 0.032 | 0.531 ± 0.0067 | 0.407 ± 0.011 | 0.426 ± 0.01 | 0.513 ± 0.028 | 0.478 ± 0.011
32 | CPICDFLFLALF | 0.565 ± 0.021 | 0.599 ± 0.064 | 0.483 ± 0.037 | 0.651 ± 0.022 | 0.469 ± 0.023 | 0.424 ± 0.028 | 0.598 ± 0.03 | 0.424 ± 0.054
33 | CRHCFVLLYFDY | 0.304 ± 0.026 | 0.304 ± 0.013 | 0.321 ± 0.033 | 0.384 ± 0.0093 | 0.421 ± 0.017 | 0.318 ± 0.023 | 0.374 ± 0.0097 | 0.349 ± 0.00063
34 | CRLATILRITAL | 0.574 ± 0.028 | 0.665 ± 0.026 | 0.552 ± 0.022 | 0.658 ± 0.021 | 0.193 ± 0.008 | 0.241 ± 0.031 | 0.4445 ± 0.00077 | 0.384 ± 0.018
35 | CSLFFFRLIFTL | 0.101 ± 0.025 | 0.185 ± 0.026 | 0.219 ± 0.032 | 0.339 ± 0.0091 | 0.0783 ± 0.0034 | 0.0603 ± 0.017 | 0.0702 ± 0.01 | 0.0826 ± 0.014
36 | CSLFYVFYRRLL | 0.595 ± 0.026 | 0.665 ± 0.012 | 0.556 ± 0.0087 | 0.649 ± 0.01 | 0.285 ± 0.011 | 0.342 ± 0.051 | 0.5212 ± 0.0043 | 0.38 ± 0.0078
37 | CSLRGLFLVVSV | 0.3652 ± 0.0033 | 0.396 ± 0.018 | 0.289 ± 0.032 | 0.474 ± 0.016 | 0.339 ± 0.025 | 0.292 ± 0.02 | 0.451 ± 0.01 | 0.405 ± 0.0065
38 | CTLVFLFFDLCS | 0.413 ± 0.015 | 0.533 ± 0.087 | 0.333 ± 0.042 | 0.497 ± 0.03 | 0.263 ± 0.014 | 0.304 ± 0.018 | 0.4904 ± 0.0021 | 0.405 ± 0.053
39 | CVCVVVCWRCGF | 0.378 ± 0.018 | 0.465 ± 0.035 | 0.306 ± 0.031 | 0.509 ± 0.021 | 0.276 ± 0.0091 | 0.327 ± 0.034 | 0.4555 ± 0.0043 | 0.481 ± 0.015
